# Measurements published in patent US20050064507A1, “Determining kinase specificity” (priority 2003, published 2005).
# Biological target: T1, PKC-theta (Homo sapiens, UniProt Q04759)
# T1 construct: His-tag; made in house; host or cells: baculovirus-infected Sf9 cells
# Experiment: In vitro kinase assay: peptide phosphorylation by PKC-theta
# Format: biochemical
# Details: for Peptide phosphorylation by PKC-theta: Table 8; for PKC theta phosphorylation: normalized to best substrate
# Text: A second strategy for validation of the PSSM derived from the methods described herein is to identify sequences represented in the human proteome that have low percentiles derived from the PSSM, to synthesize peptides that have those sequences, and test the efficiency of phosphorylation of those peptides by the kinase of interest. […] The results are shown for individual peptides (FIG. 11, panel A) or for groups of peptides aggregated by percentile prediction (FIG. 11, panel B). As with the testing described above with prospectively chosen peptides, the percentile scores are highly predictive of phosphorylation by the relevant kinase.
# An example of the purification procedure used for production of active kinase is as follows. A preparation of PKC-theta was prepared using a Gateway expression construct containing PKC-theta that was expressed in baculovirus, which were used to infect Sf9 cells. The cell pellet from a liter of baculovirus-infected Sf9 cells was resuspended in 20 volumes (60 ml) of extraction buffer (20 mM Na phosphate buffer pH 7.5, 500 mM NaCl, 5 mM pyrophosphate, 10% glycerol, 10 mM imidazole, 1 mM PMSF), sonicated twice for one minute (1 cm tip at 60% power and 50% duty cycle) and cell disruption was verified microscopically. The sample was adjusted to five mM MgCl2 and treated with one U benzonase/ml for an additional 20 minute on ice. The sample was clarified by centrifugation in a JA-20 rotor at 15K for 30 min at 4° C., filtered through a […] filter and applied at 0.5 ml/min to a one ml chelating sepharose column previously charged with nickel and equilibrated with extraction buffer. The column was washed with extraction buffer at one ml/min to baseline and eluted in a 20 ml gradient (20-500 mM imidazole in extraction buffer) into one ml fractions that were analyzed by SDS-PAGE. Fractions with the highest concentration of protein were pooled, were dialyzed twice against one liter of 20 mM Na PO4 pH 7.5, 50 mM NaCl buffer. The kinase pool was dialyzed twice against 20 mM HEPES pH 7.4, 100 mM NaCl, 2 mM EDTA, 5 mM DTT, 0.05% Triton-X-100. After dialysis, the sample was adjusted to 50% glycerol and quick-frozen in a dry ice/ethanol bath.
# The conditions of the kinase assay and the amount of active kinase used varied with the kinase and with the accuracy needed. For a typical experiment, 5-20 ng of kinase was used per well and each peptide pool was assayed in duplicate wells. Note that the absolute amount of kinase used was not usually a critical parameter, because the desired information related to specificity of the kinase not its absolute activity, and robustness of the assay depends on comparisons of the same amount of kinase on different peptides. The combination of kinase concentration and assay duration was modified to assure that the stoichiometry of peptide phosphorylation never exceeded 5%. The choice of kinase buffer depended on the kinase being analyzed. For studies of PKC, 100 mM HEPES, 0.05% Triton-X100, 1 mM CaCl2, 20 mM MgCl2, 0.2 mg/ml phosphatidyl serine (Avanti Polar Lipids), PMA 100 ng/ml was typically used. The lipid stock was prepared by transferring 3 mg phosphatidyl serine into iced mixture of 450 μl water plus 50 μl of 10% Triton-X100, sonicating 10 times on ice for 1 sec each.
# The kinase reaction mixture was assembled by sequential addition to a tube held on ice of: 5 μl peptide (100 μM for final concentration of 10 μM), 15 μl of kinase (typically 5 ng/well, in appropriate kinase buffer), 30 μl of ATP (1 uCi/well of ^32P-gamma ATP in a stock of 167 μM cold ATP in the kinase buffer; for final concentration for 100 μM ATP). The mixture was rapidly warmed to desired reaction temperature (30° C. for PKC) and incubated for the desired duration (usually 10 minutes). The kinase assay was terminated by transfer to 4° C. water batch, and rapid addition of an equal volume (50 μl) of stop solution [0.1M ATP+0.1M EDTA in water, pH 8]. […]
# T1 sequence (Q04759 whole entry): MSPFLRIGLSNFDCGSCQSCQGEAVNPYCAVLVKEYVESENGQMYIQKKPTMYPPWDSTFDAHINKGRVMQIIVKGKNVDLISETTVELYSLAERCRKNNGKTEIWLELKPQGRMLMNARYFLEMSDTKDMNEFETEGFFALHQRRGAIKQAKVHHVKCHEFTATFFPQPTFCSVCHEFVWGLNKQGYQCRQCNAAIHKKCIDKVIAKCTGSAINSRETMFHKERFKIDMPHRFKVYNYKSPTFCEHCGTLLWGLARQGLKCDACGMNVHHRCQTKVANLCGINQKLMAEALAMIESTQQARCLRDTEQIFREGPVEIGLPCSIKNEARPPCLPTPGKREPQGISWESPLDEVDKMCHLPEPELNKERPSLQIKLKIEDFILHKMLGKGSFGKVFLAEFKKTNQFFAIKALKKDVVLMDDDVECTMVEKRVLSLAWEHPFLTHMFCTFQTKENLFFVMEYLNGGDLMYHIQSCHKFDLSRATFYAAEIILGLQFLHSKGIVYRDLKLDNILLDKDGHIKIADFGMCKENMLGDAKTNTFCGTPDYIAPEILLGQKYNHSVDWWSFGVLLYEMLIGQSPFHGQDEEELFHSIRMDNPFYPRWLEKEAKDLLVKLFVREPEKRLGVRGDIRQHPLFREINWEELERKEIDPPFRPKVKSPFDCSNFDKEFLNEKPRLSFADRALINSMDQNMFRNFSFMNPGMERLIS
Substance,Peptide phosphorylation by PKC-theta,PKC theta phosphorylation,phosphorylation by PKC theta (peptide concentration 1 uM),phosphorylation by PKC theta (peptide concentration 10 uM)
76 (HVRRRRGTFKRSKLRARD) [compound 76],99,100%,–,–
77 (KKKKRASFKRKSSKKG) [compound 77],–,74%,–,–
78 (KFARKSTRRSIRLPE) [compound 78],–,47%,–,–
79 (NRKKKRTSFKRKA) [compound 79],–,33%,–,–
80 (KKKKKRFSFKKSFKL) [compound 80],–,63%,–,–
82 (PRLIRRGSKKRPAR) [compound 82],–,49%,–,–
83 (RKIPKRPGSVHRTPSRQ) [compound 83],–,92%,–,–
84 (QKKSRLRRRASQLKI) [compound 84],–,87%,–,–
85 (RFARKGSLRQKNV) [compound 85],–,46%,–,–
86 (RQRKRKLSFRRRTDKD) [compound 86],–,38%,–,–
89 (EYLERRASRRRAV) [compound 89],–,60%,–,–
90 (AQIVKRASLKRGKQ) [compound 90],–,38%,–,–
92 (DGQKRKKSLRKKLD) [compound 92],–,47%,–,–
93 (AARKKRISVKKKQEQ) [compound 93],–,40%,–,–
94 (KLAVGRHSFSRRSGV) [compound 94],–,86%,–,–
95 (KKKFRTPSFLKKSKK) [compound 95],–,42%,–,–
96 (RGFLRSASLGRRASFHLE) [compound 96],–,21%,–,–
99 (AGWRKKTSFRKPKED) [compound 99],–,25%,–,–
100 (WKGKRRSKARKKRK) [compound 100],–,56%,–,–
101 (GAPPRRSSIRNAH) [compound 101],–,29%,–,–
102 (AGSFKRNSIKKIV) [compound 102],–,28%,–,–
103 (LLKKRDSFRTPRDSKLE) [compound 103],–,24%,–,–
104 (EKIKRSSLKKVDSLKK) [compound 104],–,25%,–,–

Substance,Peptide phosphorylation by PKC-theta,PKC theta phosphorylation,phosphorylation by PKC theta (peptide concentration 1 uM),phosphorylation by PKC theta (peptide concentration 10 uM)
105 (ALRRPSLRREADD) [compound 105],–,21%,–,–
106 (EILSRRPSYRKILND) [compound 106],–,19%,–,–
107 (QKRHARVTVKYDRRE) [compound 107],–,40%,–,–
108 (KATTKKRTLRKNDRK) [compound 108],–,32%,–,–
109 (KEVVRTDSLKGRRGR) [compound 109],–,9%,–,–
110 (EGGDRRASGRRK) [compound 110],–,22%,–,–
111 (KKKRFSFKKSFKLSGFSFKK) [compound 111],–,18%,–,–
112 (KRPGKKGSNKRPGKR) [compound 112],–,17%,–,–
113 (GENVLKKSMKSRVKG) [compound 113],–,10%,–,–
114 (KKKKRASFKRKSSKKG) [compound 114],–,–,100,86
115 (NRKKKRTSFKRKA) [compound 115],–,–,89,77
116 (EEGTFRSSIRRLSTRRR) [compound 116],–,–,83,78
117 (NRKKKRTSFKRKA) [compound 117],–,–,84,78
118 (RPQNTLKASKKKKRASFKRK) [compound 118],–,–,67,52
119 (KKRFSFKKSFKLSGFSFKKN) [compound 119],–,–,69,28
120 (AKRRRLSSLRASTSK) [compound 120],–,–,51,51
121 (LRRRSLRRSNSISKSPGP) [compound 121],57,–,51,57
122 (RAITSTLASSFKRRR) [compound 122],–,–,66,42
123 (KKRFSFKKSFKLSGFSFKKN) [compound 123],–,–,47,32
124 (PRLIRRGSKKRPAR) [compound 124],–,–,53,57
125 (PLKEKKRERKTSSKSSVRKR) [compound 125],–,–,39,100
126 (KAIKAIEGGQKFARKSTRRS) [compound 126],–,–,46,45
127 (SQVQKQRSAGSFKRNSIKKI) [compound 127],–,–,45,58

Substance,Peptide phosphorylation by PKC-theta,PKC theta phosphorylation,phosphorylation by PKC theta (peptide concentration 1 uM),phosphorylation by PKC theta (peptide concentration 10 uM)
128 (QQVDRERPHVRRRRGTFKRS) [compound 128],–,–,41,59
129 (VQRHRSMRKTFARYLSFRRD) [compound 129],–,–,48,25
130 (EYLERRASRRRAV) [compound 130],–,–,38,44
131 (WKGKRRSKARKKRK) [compound 131],–,–,53,35
132 (GFLNEPLSSKSQRRKSLKLK) [compound 132],–,–,34,40
133 (LEKRGMLGKRPRRKSSRRKK) [compound 133],–,–,46,53
134 (RSRSRSRSKSKDKRKSRKRS) [compound 134],–,–,36,16
135 (KKKFRTPSFLKKSKK) [compound 135],–,–,30,36
136 (RARRDSLKKIEIW) [compound 136],–,–,42,28
137 (PSKSPSKKKKKFRTPSFLKK) [compound 137],–,–,40,19
138 (EYLERRASRRRAV) [compound 138],–,–,34,39
139 (RPTPGDGEKRSRIKKSKKRK) [compound 139],–,–,31,17
140 (TELEGGFSRQRKRKLSFRRR) [compound 140],–,–,25,35
141 (VTDSQKRREILSRRPSYRKI) [compound 141],–,–,29,28
142 (ERHVAQKKSRLRRRASQLKI) [compound 142],–,–,28,37
143 (VRYTPYTISPYNRKGSFRKQ) [compound 143],–,–,25,27
144 (LSSMFGTLPRKSRKGSVRKQ) [compound 144],–,–,35,22
145 (ISDFGLAKKLAVGRHSFSRR) [compound 145],–,–,27,25
146 (QAQRQIKRGAPPRRSSIRNA) [compound 146],–,–,33,34
147 (RDIRQSPKRGFLRSASLGRR) [compound 147],–,–,20,69
154 (KKFFTQGWAGWRKKTSFRKP) [compound 154],–,–,34,21
